Measurements as given in PMC4541722.

Experiments:
[1] = system: Nc1ccn([C@@H]2O[C@H](CO)[C@@H](O)C2(F)F)c(=O)n1; experiment: purified protein; type: biochemical, Mesomycoplasma hyorhinis; settings: PBS, 37 °C, 10 min, 4 nM enzyme, fit up to 30 mM substrate, second KM at very high concentrations not determined
[2] = system: Nc1ccn([C@H]2C[C@H](O)[C@@H](CO)O2)c(=O)n1; experiment: purified protein; type: biochemical, Mesomycoplasma hyorhinis; settings: PBS, 37 °C, 10 min, 4 nM enzyme

CDAHyor (M. hyorhinis cytidine deaminase) (Mesomycoplasma hyorhinis MCLD)
Km [1]: 9.064 ± 1.487 mM | kcat [1]: 105 ± 7 s⁻¹ | kcat/Km [1]: 12000 M⁻¹ s⁻¹ | Km [2]: 2.586 ± 0.114 mM | kcat [2]: 127 ± 2 s⁻¹ | kcat/Km [2]: 49000 M⁻¹ s⁻¹
